# Test results published in US20200317779A1.
# Key:
# [1] = biological target: recombinant human CD3ε/δ heterodimer (human) (UniProt P07766); assay: ELISA, coated CD3ε/δ
# [2] = biological target: recombinant cynomolgus monkey CD3ε/δ heterodimer (cynomolgus monkey) (UniProt Q95LI5); assay: ELISA, coated CD3ε/δ
# [3] = biological target: recombinant human CD3ε/δ heterodimer (human) (UniProt P07766); assay: BLI (Octet), antigen on anti-Penta His sensor, antibody 50 nM
# [4] = biological target: recombinant cynomolgus monkey CD3ε/δ heterodimer (cynomolgus monkey) (UniProt Q95LI5); assay: as above
# Sequence of recombinant human CD3ε/δ heterodimer (human) (P07766 23-126, stated change not applied, chain 1 of 2): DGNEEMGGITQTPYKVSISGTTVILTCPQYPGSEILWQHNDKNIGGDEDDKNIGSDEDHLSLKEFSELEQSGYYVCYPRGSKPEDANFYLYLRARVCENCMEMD
# Sequence of recombinant human CD3ε/δ heterodimer (human) (P04234 22-105, stated change not applied, chain 2 of 2, further chain): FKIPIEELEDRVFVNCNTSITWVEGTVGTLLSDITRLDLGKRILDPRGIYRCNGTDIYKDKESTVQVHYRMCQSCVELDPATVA
# Sequence of recombinant cynomolgus monkey CD3ε/δ heterodimer (cynomolgus monkey) (Q95LI5 22-117, stated change not applied, chain 1 of 2): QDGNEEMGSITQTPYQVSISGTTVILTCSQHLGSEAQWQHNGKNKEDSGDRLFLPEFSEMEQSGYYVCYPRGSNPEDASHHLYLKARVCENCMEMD
# Sequence of recombinant cynomolgus monkey CD3ε/δ heterodimer (cynomolgus monkey) (Q95LI8 22-105, stated change not applied, chain 2 of 2, further chain): as the sequence (P04234 22-105, stated change not applied, chain 2 of 2, further chain) above, with I5V, N15K, I20V, S32T, D33N, I34N, T64A, S74N, V83L counted along it
Absorbance (450 nm) [1],Absorbance (450 nm) [2],Kd [3],koff [3],kon [3],Kd [4],koff [4],kon [4],Binder
2.42,2.69,1.59 nM,0.000332 s⁻¹,209000 M⁻¹ s⁻¹,1.72 nM,0.000461 s⁻¹,269000 M⁻¹ s⁻¹,"G15 (antibody, human IgG1, lambda, L234A L235A, V domains shown) VH: EVQLVESGGGLVQPGGSLKLSCAASGFTFNTYAMNWVRQASGKGLEWVARIRSKYNNYATYYADSVKDRFTISRDDSQSTAYLQMNSLKTEDTAVYYCVRHGNFGNSYVSWFAYWGQGTLVTVSS VL: QAVVTQEPSLTVSPGGTVTLTCRSSTGAVTTSNYANWVQQKPGQAPRGLIGGTNKRAPWTPARFSGSLLGGKAALTLSGAQPEDEAEYYCALWYSNLWVFGGGTKLTVLG"
0.718,2.45,21.4 nM,0.00423 s⁻¹,198000 M⁻¹ s⁻¹,30.9 nM,0.00642 s⁻¹,208000 M⁻¹ s⁻¹,"B07 (antibody, human IgG1, lambda, L234A L235A, V domains shown) VH: EVQLVESGGGLVQPGGSLKLSCAASGFTFNTYAMNWVRQASGKGLEWVGRIRSKYNNYATYYADSVKDRFTISRDDSKNTLYLQMNSLKTEDTAVYYCVRHGNFGNSYVSWFAYWGQGTLVTVSS VL: QAVVTQEPSLTVSPGGTVTLTCRSSTGAVTTSNYANWFQQKPGQAPRGLIGGTNKRAPWTPARFSGSLLGGKAALTLSGAQPEDEAEYYCALWYSNLWVFGGGTKLTVLG"
0.424,2.19,27.6 nM,0.00407 s⁻¹,148000 M⁻¹ s⁻¹,26.3 nM,0.00525 s⁻¹,199000 M⁻¹ s⁻¹,"B08 (antibody, human IgG1, lambda, L234A L235A, V domains shown) VH: EVQLVESGGGLVQPGGSLKLSCAASGFTFNTYAMNWVRQASGKGLEWVGRIRSKYNNYATYYADSVKDRFTISRDDSKNTLYLQMNSLKTEDTAVYYCVRHGNFGNSYVSWFAYWGQGTLVTVSS VL: QAVVTQEPSLTVSPGGTVTLTCRSSTGAVTTSNYANWFQQKPGQAPRGLIGGTNKRAPWTPARFSGSLLGDKAALTLSGAQPEDEAEYYCALWYSNLWVFGGGTKLTVLG"
2.71,3.16,0.521 nM,0.000193 s⁻¹,371000 M⁻¹ s⁻¹,0.627 nM,0.000328 s⁻¹,523000 M⁻¹ s⁻¹,"B15 (antibody, human IgG1, lambda, L234A L235A, V domains shown) VH: EVQLVESGGGLVQPGGSLKLSCAASGFTFNTYAMNWVRQASGKGLEWVGRIRSKYNNYATYYADSVKDRFTISRDDSKNTLYLQMNSLKTEDTAVYYCVRHGNFGNSYVSWFAYWGQGTLVTVSS VL: QAVVTQEPSLTVSPGGTVTLTCRSSTGAVTTSNYANWVQQKPGQAPRGLIGGTNKRAPWTPARFSGSLLGGKAALTLSGAQPEDEAEYYCALWYSNLWVFGGGTKLTVLG"
2.44,2.84,0.953 nM,0.000189 s⁻¹,199000 M⁻¹ s⁻¹,1.17 nM,0.000269 s⁻¹,230000 M⁻¹ s⁻¹,"H15 (antibody, human IgG1, lambda, L234A L235A, V domains shown) VH: EVQLVESGGGLVQPGGSLKLSCAASGFTFNTYAMNWVRQASGKGLEWVARIRSKYNNYATYYADSVKDRFTISRDDSQSTLYLQMNSLKTEDTAVYYCVRHGNFGNSYVSWFAYWGQGTLVTVSS VL: QAVVTQEPSLTVSPGGTVTLTCRSSTGAVTTSNYANWVQQKPGQAPRGLIGGTNKRAPWTPARFSGSLLGGKAALTLSGAQPEDEAEYYCALWYSNLWVFGGGTKLTVLG"
2.37,2.93,0.445 nM,0.000144 s⁻¹,322000 M⁻¹ s⁻¹,0.66 nM,0.000308 s⁻¹,466000 M⁻¹ s⁻¹,"B16 (antibody, human IgG1, lambda, L234A L235A, V domains shown) VH: EVQLVESGGGLVQPGGSLKLSCAASGFTFNTYAMNWVRQASGKGLEWVGRIRSKYNNYATYYADSVKDRFTISRDDSKNTLYLQMNSLKTEDTAVYYCVRHGNFGNSYVSWFAYWGQGTLVTVSS VL: QAVVTQEPSLTVSPGGTVTLTCRSSTGAVTTSNYANWVQQKPGQAPRGLIGGTNKRAPWTPARFSGSLLGDKAALTLSGAQPEDEAEYYCALWYSNLWVFGGGTKLTVLG"
2.79,2.86,0.296 nM,9.58e-05 s⁻¹,323000 M⁻¹ s⁻¹,0.364 nM,0.000165 s⁻¹,453000 M⁻¹ s⁻¹,"A15 (antibody, human IgG1, lambda, L234A L235A, V domains shown) VH: EVQLVESGGGLVQPGGSLKLSCAASGFTFNTYAMNWVRQASGKGLEWVGRIRSKYNNYATYYADSVKDRFTISRDDSKNTAYLQMNSLKTEDTAVYYCVRHGNFGNSYVSWFAYWGQGTLVTVSS VL: QAVVTQEPSLTVSPGGTVTLTCRSSTGAVTTSNYANWVQQKPGQAPRGLIGGTNKRAPWTPARFSGSLLGGKAALTLSGAQPEDEAEYYCALWYSNLWVFGGGTKLTVLG"
2.54,2.8,0.293 nM,8.07e-05 s⁻¹,275000 M⁻¹ s⁻¹,0.657 nM,0.000243 s⁻¹,370000 M⁻¹ s⁻¹,"A16 (antibody, human IgG1, lambda, L234A L235A, V domains shown) VH: EVQLVESGGGLVQPGGSLKLSCAASGFTFNTYAMNWVRQASGKGLEWVGRIRSKYNNYATYYADSVKDRFTISRDDSKNTAYLQMNSLKTEDTAVYYCVRHGNFGNSYVSWFAYWGQGTLVTVSS VL: QAVVTQEPSLTVSPGGTVTLTCRSSTGAVTTSNYANWVQQKPGQAPRGLIGGTNKRAPWTPARFSGSLLGDKAALTLSGAQPEDEAEYYCALWYSNLWVFGGGTKLTVLG"
2.48,2.77,1.32 nM,0.000201 s⁻¹,153000 M⁻¹ s⁻¹,1.75 nM,0.00034 s⁻¹,195000 M⁻¹ s⁻¹,"G16 (antibody, human IgG1, lambda, L234A L235A, V domains shown) VH: EVQLVESGGGLVQPGGSLKLSCAASGFTFNTYAMNWVRQASGKGLEWVARIRSKYNNYATYYADSVKDRFTISRDDSQSTAYLQMNSLKTEDTAVYYCVRHGNFGNSYVSWFAYWGQGTLVTVSS VL: QAVVTQEPSLTVSPGGTVTLTCRSSTGAVTTSNYANWVQQKPGQAPRGLIGGTNKRAPWTPARFSGSLLGDKAALTLSGAQPEDEAEYYCALWYSNLWVFGGGTKLTVLG"
2.46,2.87,0.881 nM,0.00012 s⁻¹,136000 M⁻¹ s⁻¹,1.13 nM,0.000206 s⁻¹,182000 M⁻¹ s⁻¹,"H16 (antibody, human IgG1, lambda, L234A L235A, V domains shown) VH: EVQLVESGGGLVQPGGSLKLSCAASGFTFNTYAMNWVRQASGKGLEWVARIRSKYNNYATYYADSVKDRFTISRDDSQSTLYLQMNSLKTEDTAVYYCVRHGNFGNSYVSWFAYWGQGTLVTVSS VL: QAVVTQEPSLTVSPGGTVTLTCRSSTGAVTTSNYANWVQQKPGQAPRGLIGGTNKRAPWTPARFSGSLLGDKAALTLSGAQPEDEAEYYCALWYSNLWVFGGGTKLTVLG"
